Values quoted from earlier work, collected in PMC3897602 (PLoS ONE, 2014).

Conditions: in vivo, po

For “biotinylation of exendin-4: biotinylated exendin-4 reported by Jin et al”, the apparent bioavailability is listed as 3.95%.
